protease Q (enzyme)
percent of β-casein hydrolyzed, band intensity on SDS-PAGE (β-casein): 87 % hydrolyzed | hydrolysis of Azocoll, absorbance at 520 nm (% of original activity) (Azocoll): 47 | proteolytic activity (U/mg), casein as substrate (casein): 4290 U/mg

Reference: US5976859
